Changes are numbered by the printed parent chain.
B1: anti-Gc (ectodomain) 변이체 Fab 클론 Gc-3-1E12 (Fab, V domains shown)
VH: EVQLVESGGGLVQPGGSLRLSCAASGFTFSDYAMHWVRQAPGKGLEWVSGISSSGGSTFYADSVKGRFTISRDNSKNTLYLQMNSLRAEDTAVYYCAKWEWGYQERKWAFDLWGQGTLVTVSS
VL: DIQMTQSPSSLSASVGDRVTITCRASQSISNYLNWYQQKPGKAPKLLIYATSSLQSGVPSRFSGSGSGTDFTLTISSLQPEDFATYYCQQTYSFPWTFGQGTKVEIK
B2: anti-Gc (ectodomain) 변이체 Fab 클론 Gc-b3-1E2 (Fab, V domains shown)
VH: EVQLVESGGGLVQPGGSLRLSCAASGFTFSNYAMNWVRQAPGKGLEWVSAISGSGSSTYYADSVKGRFTISRDNSKNTLYLQMNSLRAEDTAVYYCAKQFYVGQWLSGWFDVWGQGTLVTVSS
VL: B1 VL with S53R, T91S
B3: anti-Gc (ectodomain) 변이체 Fab 클론 Gc-4-1C8 (Fab, V domains shown)
VH: EVQLVESGGGLVQPGGSLRLSCAASGFTFSDYAMNWVRQAPGKGLEWVSSISSSGSSTYYADSVKGRFTISRDNSKNTLYLQMNSLRAEDTAVYYCAKVKWRQSTSEYFDYWGQGTLVTVSS
VL: B1 VL with S28T, T51A, S53T, T91S

These binders were tested against SFTSV Gc 변이체 (Severe Fever with Thrombocytopenia Syndrome Virus).
Work on B1 yielded an EC50 of 6 nM. B2 gave an EC50 of 89 nM. With B3 the EC50 was 157 nM.
